Data: patent US20160279221A1

Target: AMA1 on P. falciparum 3D7 strain parasites (Plasmodium falciparum)
Test: cell-based or functional assay

## rat mAb 4G2dc1 (antibody)
  IC30 concentration (30% inhibition against the 3D7 target parasites, GIA): 1800 µg/mL
  Inhibition (GIA at 1 mg/ml against the 3D7 target strain): 22%
